PMC8163358

Molecular target: gramicidin S synthetase A (GrsA) (UniProt P0C062)
Experiment: MST; 1 nM GrsA labelled with NT-647-NHS (RED-NHS kit), dilution series of TycB1(WT); NRPS buffer (50 mM HEPES, 100 mM NaCl, 10 mM MgCl2, 1 mM EDTA, pH 7.0) with 0.05% (v/v) Tween-20; triplicate; sigmoidal fit

Sequence of UniProt P0C062 (P0C062 whole entry): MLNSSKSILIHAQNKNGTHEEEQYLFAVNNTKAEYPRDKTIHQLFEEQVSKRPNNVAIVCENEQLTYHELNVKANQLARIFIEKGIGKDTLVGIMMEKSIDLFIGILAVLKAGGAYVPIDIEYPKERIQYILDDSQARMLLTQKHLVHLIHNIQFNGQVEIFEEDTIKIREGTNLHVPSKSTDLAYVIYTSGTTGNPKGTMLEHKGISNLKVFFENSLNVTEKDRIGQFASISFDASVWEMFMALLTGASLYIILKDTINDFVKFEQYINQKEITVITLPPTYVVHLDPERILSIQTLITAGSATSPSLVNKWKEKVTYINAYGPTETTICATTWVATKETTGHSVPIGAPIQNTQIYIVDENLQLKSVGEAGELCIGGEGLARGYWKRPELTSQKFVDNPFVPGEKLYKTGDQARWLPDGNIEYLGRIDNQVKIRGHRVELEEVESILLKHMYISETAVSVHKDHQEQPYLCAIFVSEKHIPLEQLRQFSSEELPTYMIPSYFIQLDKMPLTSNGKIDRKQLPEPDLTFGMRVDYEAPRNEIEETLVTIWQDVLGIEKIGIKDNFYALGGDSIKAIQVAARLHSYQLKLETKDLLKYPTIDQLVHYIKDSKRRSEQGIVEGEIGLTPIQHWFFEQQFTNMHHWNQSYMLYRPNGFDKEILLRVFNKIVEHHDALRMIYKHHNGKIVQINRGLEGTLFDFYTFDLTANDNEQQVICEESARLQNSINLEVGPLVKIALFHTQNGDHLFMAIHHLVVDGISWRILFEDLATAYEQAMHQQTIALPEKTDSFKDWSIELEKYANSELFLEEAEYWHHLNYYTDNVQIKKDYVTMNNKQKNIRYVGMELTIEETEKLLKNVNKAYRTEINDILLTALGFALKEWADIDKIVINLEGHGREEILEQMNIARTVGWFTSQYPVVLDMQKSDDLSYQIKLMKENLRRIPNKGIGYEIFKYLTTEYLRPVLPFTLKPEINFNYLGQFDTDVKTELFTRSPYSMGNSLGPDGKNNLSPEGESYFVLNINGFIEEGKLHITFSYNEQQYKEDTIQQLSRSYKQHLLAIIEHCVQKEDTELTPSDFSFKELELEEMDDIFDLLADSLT

“TycB1 (wildtype) (from UniProt O30408 1-3587) (domain or fragment)” was tested, and the Kd was 5 µM.
